One block for each substance: values may come before it.
Assays:
Assay in all cases: SEC; Superdex 200 Increase 10/300 GL, 4°C; mFAS samples incubated at 37°C for 1 h beforehand to promote dimerization; oligomeric state read from the elution volume
[1] = biological target: mFASΔTE (metazoan fatty acid synthase lacking the TE domain) (mouse) (UniProt P19096)
mFASΔTE G2054F (mouse) = mFASΔTE G2054F (mouse) (UniProt P19096)
mFASΔTE S2014A (mouse) = mFASΔTE S2014A (mouse) (UniProt P19096)
[2] = biological target: mFASΔTE S2014A/Y2027F (mouse) (UniProt P19096)
mFASΔTE T2076F (mouse) = mFASΔTE T2076F (mouse) (UniProt P19096)
mFASΔTE Y2027F (mouse) = mFASΔTE Y2027F (mouse) (UniProt P19096)

stoichiometry N [1]: 2
Substance: mFASΔTE (metazoan fatty acid synthase lacking the TE domain) (from UniProt P19096 1-2504) (enzyme)

stoichiometry N (mFASΔTE Y2027F (mouse)): 2
Substance: mFASΔTE Y2027F (from UniProt P19096 1-2504) (enzyme)

The remaining lines, values behind:

Substance: mFASΔTE G2054F (from UniProt P19096 1-2504) (enzyme)
stoichiometry N (mFASΔTE G2054F (mouse)): 2

Substance: mFASΔTE S2014A (from UniProt P19096 1-2504) (enzyme)
stoichiometry N (mFASΔTE S2014A (mouse)): 2

Substance: mFASΔTE S2014A/Y2027F (from UniProt P19096 1-2504) (enzyme)
stoichiometry N [2]: 2

Substance: mFASΔTE T2076F (from UniProt P19096 1-2504) (enzyme)
stoichiometry N (mFASΔTE T2076F (mouse)): 2

Reference: PMC12856111
